The source of these data is publication PMC11754801, “The molecular basis of Human FN3K mediated phosphorylation of glycated substrates” (Nature Communications, 2025).

As a reminder, the stoichiometry N is a count of units in the complex or per binding partner.

Data set [1] concerns the target Full-length (FL) wild-type human (Hs) FN3K, purified from insect cells (human) (UniProt Q9H479). The experiment in a line: SEC; preparative gel filtration during purification from Sf9 cells; HiLoad 16/60 Superdex 75; 10 mM HEPES pH 7.5, 200 mM NaCl, 0.5 mM TCEP; monomeric and dimeric peaks.
Data set [2] concerns the molecule itself. Briefly: crystal structure; HsFN3KΔ crystals, space group P212121, two molecules in the asymmetric unit; apo and soaked with nucleotides and DMF.

On to “Full-length (FL) wild-type human (Hs) FN3K, purified from insect cells (from UniProt Q9H479 1-309) (enzyme)”, for which the stoichiometry N in data set [1] worked out at 2.

B1: HsFN3KΔ (human FN3K with internal loop truncation: amino acids 117-138 replaced with a GSS linker) (enzyme)
chain: MEQLLRAELRTATLRAFGGPGAGCISEGRAYDTDAGPVFVKVNRRTQARQMFEGEVASLEALRSTGLVRVPRPMKVIDLPGGGAAFVMEHLKMKSLSSQASKLGEQMADLHLYNQKGSSYVDKFGFHTVTCCGFIPQVNEWQDDWPTFFARHRLQAQLDLIEKDYADREARELWSRLQVKIPDLFCGLEIVPALLHGDLWSGNVAEDDVGPIIYDPASFYGHSEFELAIALMFGGFPRSFFTAYHRKIPKAPGFDQRLLLYQLFNYLNHWNHFGREYRSPSLGTMRRLLK
modifications: intermolecular disulfide between Cys24 of each protomer
notes: human FN3K, Gene ID 64122, residues before the truncated loop (117-138); linker that replaces amino acids 117-138; human FN3K, Gene ID 64122, residues after the truncated loop (117-138); Two molecules in the asymmetric unit, domain-swapped dimer; also called apo-HsFN3K; source: E. coli Rosetta 2 (DE3), purified (Ni-NTA, cation exchange, TEV cleavage, SEC); not shown: His6, N-terminal, cleaved
Turning to B1, the binding result in data set [2] is reported as “binds”.
